Measurements as given in patent US20190364907.

Tests used:
[1] = target: recombinant An. gambiae syntaxin1A fragment
[2] = target: recombinant human syntaxin1A fragment, Q16623
[3] = target: An. gambiae syntaxin H252N mutant
[4] = target: An. gambiae syntaxin L271V mutant
[5] = target: An. gambiae syntaxin Q261E T262R double mutant
[6] = target: An. gambiae syntaxin M257V mutant
[7] = target: An. gambiae syntaxin T264V Q265S double mutant

Sequence of recombinant human syntaxin1A fragment, Q16623 (Q16623 whole entry, looked up, the tested form may be a part): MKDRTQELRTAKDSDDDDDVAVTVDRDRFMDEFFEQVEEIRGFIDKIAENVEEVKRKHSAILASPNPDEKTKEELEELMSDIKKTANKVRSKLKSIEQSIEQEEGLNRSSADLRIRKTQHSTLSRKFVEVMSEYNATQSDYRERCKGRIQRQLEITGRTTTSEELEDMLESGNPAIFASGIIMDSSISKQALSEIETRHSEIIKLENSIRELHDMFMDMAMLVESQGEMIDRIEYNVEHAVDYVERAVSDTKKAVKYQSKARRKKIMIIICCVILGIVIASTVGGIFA

B1: recombinant CMP1 LC (light chain of clostridial mosquitocidal protein 1) (protein)
chain: LQIRVFNYNDPIDGENIVELRYHNRSPVKAFQIVDGIWIIPERYNFTNDTKKVPDDRALTILEDEVFAVRENDYLTTDVNEKNSFLNNITKLFKRINSSNIGNQLLNYISTSVPYPVVSTNSIKARDYNTIKFDSIDGRRITKSANVLIYGPSMKNLLDKQTRAINGEEAKNGIGCLSDIIFSPNYLSVQTVSSSRFVEDPASSLTHELIHALHNLYGIQYPGEEKFKFGGFIDKLLGTRECIDYEEVLTYGGKDSEIIRKKIDKSLYPDDFVNKYGEMYKRIKGSNPYYPDEKKLKQSFLNRMNPFDQNGTFDTKEFKNHLMDLWFGLNESEFAKEKKILVRKHYITKQINPKYTELTNDVYTEDKGFVNGQSIDNQNFKIIDDLISKKVKL
Question: How did the “cleavage of recombinant SNARE protein (SDS-PAGE / Western blot)” value (“cleavage … (SDS-PAGE / Western blot)” for short) [1] turn out when B1 was run?
Answer: Its value is “CMP1 LC cleaves the mosquito syntaxin resulting in a band of lower molecular weight that corresponds to cleavage of C-terminus of syntaxin”.

Question: And the “cleavage … (SDS-PAGE / Western blot)” value [2]?
Answer: The value was “CMP1 LC was not able to cleave the recombinant human syntaxin1A”.

Question: And the “cleavage of syntaxin mutant (Western blot)” value (shortened to “cleavage of syntaxin mutant”) [3]?
Answer: Its value is “Syntaxin mutants were cleaved with less efficiency than non-mutated syntaxin”.

Question: And the “cleavage of syntaxin mutant” value [4]?
Answer: Its value is “the L271V mutant completely abolished cleavage”.

Question: What about the “cleavage of syntaxin mutant” value [5] of the same protein?
Answer: The value was “Syntaxin mutants were cleaved with less efficiency than non-mutated syntaxin”.

Question: And the “cleavage of syntaxin mutant” value [6]?
Answer: Its value is “Syntaxin mutants were cleaved with less efficiency than non-mutated syntaxin”.

Question: And the “cleavage of syntaxin mutant” value [7]?
Answer: The value was “Syntaxin mutants were cleaved with less efficiency than non-mutated syntaxin”.

B2: catalytically inactive CMP1 LC E209Q mutant (protein)
chain: LQIRVFNYNDPIDGENIVELRYHNRSPVKAFQIVDGIWIIPERYNFTNDTKKVPDDRALTILEDEVFAVRENDYLTTDVNEKNSFLNNITKLFKRINSSNIGNQLLNYISTSVPYPVVSTNSIKARDYNTIKFDSIDGRRITKSANVLIYGPSMKNLLDKQTRAINGEEAKNGIGCLSDIIFSPNYLSVQTVSSSRFVEDPASSLTHQLIHALHNLYGIQYPGEEKFKFGGFIDKLLGTRECIDYEEVLTYGGKDSEIIRKKIDKSLYPDDFVNKYGEMYKRIKGSNPYYPDEKKLKQSFLNRMNPFDQNGTFDTKEFKNHLMDLWFGLNESEFAKEKKILVRKHYITKQINPKYTELTNDVYTEDKGFVNGQSIDNQNFKIIDDLISKKVKL
Question: With B2 as the protein, how does the “cleavage … (SDS-PAGE / Western blot)” value [1] read?
Answer: Its value is “no cleavage was observed by the catalytically inactive CMP1 LC E209Q mutant”.
